Values joined by “and” are separate entries in the source; they are usually repeats but may differ in a detail not shown here. Equal entries are not always repeated.
Details: Streptomyces sp. EC3, Thermal, DSC, reversible: yes
[1] = pH 7.5, Sodium phosphate 60 mM, transition: 3
[2] = pH 8.9, glycine-NaOH 60 mM, transition: 4

Sequence of Endo-1,4-beta-xylanase wild type, Q56013 (Q56013 entry or part of it): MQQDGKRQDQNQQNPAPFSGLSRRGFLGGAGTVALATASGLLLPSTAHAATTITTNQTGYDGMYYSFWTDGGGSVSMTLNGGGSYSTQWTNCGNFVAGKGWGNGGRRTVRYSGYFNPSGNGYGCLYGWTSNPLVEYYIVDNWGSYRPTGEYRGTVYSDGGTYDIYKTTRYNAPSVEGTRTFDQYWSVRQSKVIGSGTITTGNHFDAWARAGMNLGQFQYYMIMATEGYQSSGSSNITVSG

Endo-1,4-beta-xylanase wild type, Q56013
unfolding enthalpy (calorimetric) (pH 3.6, Sodium phosphate 60 mM, transition: 4): 66 kcal/mol and 84 kcal/mol and 108 kcal/mol | unfolding enthalpy (calorimetric) (pH 4.1, Sodium phosphate 60 mM, transition: 3): 57 kcal/mol and 100 kcal/mol | unfolding enthalpy (calorimetric) (pH 6.3, Sodium phosphate 60 mM, transition: 4): 100 kcal/mol and 150 kcal/mol and 223 kcal/mol | Tm [1]: 60.5 °C and 64 °C | unfolding enthalpy (calorimetric) [1]: 99 kcal/mol and 200 kcal/mol | unfolding enthalpy (calorimetric) (pH 7.5, Sodium phosphate 60 mM, transition: 4): 93 kcal/mol and 137 kcal/mol and 187 kcal/mol | unfolding enthalpy (calorimetric) (pH 8.9, glycine-NaOH 60 mM, transition: 3): 72 kcal/mol and 136 kcal/mol | Tm [2]: 51.5 °C and 54.6 °C | unfolding enthalpy (calorimetric) [2]: 118 kcal/mol and 157 kcal/mol

Reference: FireProtDB (doi:10.1021/bi00250a032)
